{
  "source": "paper PMC9109717",
  "substrate": "Nc1ncnc2c1ncn2[C@@H]1O[C@H](CO)[C@H]2OP(=O)(O)O[C@H]21",
  "test": "purified protein",
  "type": "biochemical, Thermobifida fusca",
  "conditions": "pH 7.5",
  "data": [
    {"protein": "(Thermobifida fusca YX) (protein) MPEHDSTDDKHGIPPLDLRFWAKERGLRGKTYPLVCHSLDAAAAALVLWNEYLSPGLRDTIASSMETDEEHAGHCIAFWAGLHDIGKLTREFQQQIAIDLSAYPGEELSGEQRSHAAATGKWLPFALPSLGYPNGGLVTGLVAQMLGGHHGTFHPHPSFQSRNPLAEFGFSSPHWEKQRHALLHAVFDATGRPTPPDMLDGPTASVVCGLVILADWLVSQEDFLLERLTSLPADGSASALRAHFETSLRRIPSLLDAAGLRPITVPPATFTESFPHLSKPNGLQASLAKHLPCLCTGPGLVLITAPMGEGKTEAAYHVADLLGKATGRPGRFLALPTMATADQMHTRLKEYARYRVENTDLPRSSTLALLHSMAWLNPDYAPADLPGVSKVLSNLGHRDPFAATDWLMGRKRGLLAPWAVGTIDQALMAVLRAKHNALRLFGLAGKVVVVDEAHAVDPYMQVLLEQLLRWLGTLDVPVVLLSATLHHSIANSLVKAYLEGARGRRWNRSEPQPVSEVSYPGWLHVDARIGKVTRSSDVDPLPIATTPRKPLEVRLVDVPVKEGALNRSTVLAKELTPLVKQGGCAAIICTTVAEAQGVYDLLSQWFATLGEDAPDLYLLHSRFPNRQRTEITATIVDLFGKEGAQSGRRPTRGAVLVATQVVEQSLDLDVDLMISDLAPVSLLLQRAGRCWRHEHLGIINRPQWAKQPELVVLTPEQNGDADRAPWFPRSWTSVYPLALLQRTYTLLRRRNGAPVQIPEDVQQLVDDVYDDDSLAEDLEADMERMGEELAQRGLARNAVIPDPDDAEDNLNGLTEFSFDVDEHVLATRFGAGSVRVLCYYVDTAGNRWLDPECTVEFPEQGTGREGRFTMADCRDLVARTIPVRMGPWASQLTEDNHPPEAWRESFYLRDLVLIPQRVTDEGAVLPTETGGREWLLDPCKGLIF", "values": [
      {"measurement": "Km", "result": "27 (±6) mM"}
    ]}
  ]
}
